# Test results reported in PMC11574045, “A cofactor-induced repressive type of transcription factor condensation can be induced by synthetic peptides to suppress tumorigenesis” (The EMBO Journal, 2024).
# B1: DP-1 (protein, UniProt Q14186 1-410, looked up)
# Transcription factor Dp-1: MAKDAGLIEANGELKVFIDQNLSPGKGVVSLVAVHPSTVNPLGKQLLPKTFGQSNVNIAQQVVIGTPQRPAASNTLVVGSPHTPSTHFASQNQPSDSSPWSAGKRNRKGEKNGKGLRHFSMKVCEKVQRKGTTSYNEVADELVAEFSAADNHILPNESAYDQKNIRRRVYDALNVLMAMNIISKEKKEIKWIGLPTNSAQECQNLEVERQRRLERIKQKQSQLQELILQQIAFKNLVQRNRHAEQQASRPPPPNSVIHLPFIIVNTSKKTVIDCSISNDKFEYLFNFDNTFEIHDDIEVLKRMGMACGLESGSCSAEDLKMARSLVPKALEPYVTEMAQGTVGGVFITTAGSTSNGTRFSASDLTNGADGMLATSSNGSQYSGSRVETPVSYVGEDDEEDDDFNENDEDD
# B2: DLX4 (protein, UniProt Q92988 1-240, looked up)
# Homeobox protein DLX-4: MTSLPCPLPGRDASKAVFPDLAPVPSVAAAYPLGLSPTTAASPNLSYSRPYGHLLSYPYTEPANPGDSYLSCQQPAALSQPLCGPAEHPQELEADSEKPRLSPEPSERRPQAPAKKLRKPRTIYSSLQLQHLNQRFQHTQYLALPERAQLAAQLGLTQTQVKIWFQNKRSKYKKLLKQNSGGQEGDFPGRTFSVSPCSPPLPSLWDLPKAGTLPTSGYGNSFGAWYQHHSSDVLASPQMM
# B3: DDX20 (protein, UniProt Q9UHI6 1-824, looked up)
# Probable ATP-dependent RNA …: MAAAFEASGALAAVATAMPAEHVAVQVPAPEPTPGPVRILRTAQDLSSPRTRTGDVLLAEPADFESLLLSRPVLEGLRAAGFERPSPVQLKAIPLGRCGLDLIVQAKSGTGKTCVFSTIALDSLVLENLSTQILILAPTREIAVQIHSVITAIGIKMEGLECHVFIGGTPLSQDKTRLKKCHIAVGSPGRIKQLIELDYLNPGSIRLFILDEADKLLEEGSFQEQINWIYSSLPASKQMLAVSATYPEFLANALTKYMRDPTFVRLNSSDPSLIGLKQYYKVVNSYPLAHKVFEEKTQHLQELFSRIPFNQALVFSNLHSRAQHLADILSSKGFPAECISGNMNQNQRLDAMAKLKHFHCRVLISTDLTSRGIDAEKVNLVVNLDVPLDWETYMHRIGRAGRFGTLGLTVTYCCRGEEENMMMRIAQKCNINLLPLPDPIPSGLMEECVDWDVEVKAAVHTYGIASVPNQPLKKQIQKIERTLQIQKAHGDHMASSRNNSVSGLSVKSKNNTKQKLPVKSHSECGIIEKATSPKELGCDRQSEEQMKNSVQTPVENSTNSQHQVKEALPVSLPQIPCLSSFKIHQPYTLTFAELVEDYEHYIKEGLEKPVEIIRHYTGPGDQTVNPQNGFVRNKVIEQRVPVLASSSQSGDSESDSDSYSSRTSSQSKGNKSYLEGSSDNQLKDSESTPVDDRISLEQPPNGSDTPNPEKYQESPGIQMKTRLKEGASQRAKQSRRNLPRRSSFRLQTEAQEDDWYDCHREIRLSFSDTYQDYEEYWRAYYRAWQEYYAAASHSYYWNAQRHPSWMAAYHMNTIYLQEMMHSNQ
# B4: DDX17 (protein, UniProt Q92841 1-729, looked up)
# Probable ATP-dependent RNA …: MPTGFVAPILCVLLPSPTREAATVASATGDSASERESAAPAAAPTAEAPPPSVVTRPEPQALPSPAIRAPLPDLYPFGTMRGGGFGDRDRDRDRGGFGARGGGGLPPKKFGNPGERLRKKKWDLSELPKFEKNFYVEHPEVARLTPYEVDELRRKKEITVRGGDVCPKPVFAFHHANFPQYVMDVLMDQHFTEPTPIQCQGFPLALSGRDMVGIAQTGSGKTLAYLLPAIVHINHQPYLERGDGPICLVLAPTRELAQQVQQVADDYGKCSRLKSTCIYGGAPKGPQIRDLERGVEICIATPGRLIDFLESGKTNLRRCTYLVLDEADRMLDMGFEPQIRKIVDQIRPDRQTLMWSATWPKEVRQLAEDFLRDYTQINVGNLELSANHNILQIVDVCMESEKDHKLIQLMEEIMAEKENKTIIFVETKRRCDDLTRRMRRDGWPAMCIHGDKSQPERDWVLNEFRSGKAPILIATDVASRGLDVEDVKFVINYDYPNSSEDYVHRIGRTARSTNKGTAYTFFTPGNLKQARELIKVLEEANQAINPKLMQLVDHRGGGGGGGGRSRYRTTSSANNPNLMYQDECDRRLRGVKDGGRRDSASYRDRSETDRAGYANGSGYGSPNSAFGAQAGQYTYGQGTYGAAAYGTSSYTAQEYGAGTYGASSTTSTGRSSQSSSQQFSGIGRSGQQPQPLMSQQFAQPPGATNMIGYMGQTAYQYPPPPPPPPPSRK
# B5: DPRX (protein, UniProt A6NFQ7 1-191, looked up)
# Divergent paired-related …: MPGSEDLRKGKDQMHSHRKRTMFTKKQLEDLNILFNENPYPNPSLQKEMASKIDIHPTVLQVWFKNHRAKLKKAKCKHIHQKQETPQPPIPEGGVSTSVGLRNADTLPRLPNAAHPIGLVYTGHRVPSFQLILYPNLKVPANDFIGHRIVHFGCCRDPNIYCLYPILESQVCAPSFHSGSPACSSNQSRER
# B6: DLX2 (protein, UniProt Q07687 1-328, looked up)
# Homeobox protein DLX-2: MTGVFDSLVADMHSTQIAASSTYHQHQQPPSGGGAGPGGNSSSSSSLHKPQESPTLPVSTATDSSYYTNQQHPAGGGGGGGSPYAHMGSYQYQASGLNNVPYSAKSSYDLGYTAAYTSYAPYGTSSSPANNEPEKEDLEPEIRIVNGKPKKVRKPRTIYSSFQLAALQRRFQKTQYLALPERAELAASLGLTQTQVKIWFQNRRSKFKKMWKSGEIPSEQHPGASASPPCASPPVSAPASWDFGVPQRMAGGGGPGSGGSGAGSSGSSPSSAASAFLGNYPWYHQTSGSASHLQATAPLLHPTQTPQPHHHHHHHGGGGAPVSAGTIF
# B7: DMRTA1 (protein, UniProt Q5VZB9 1-504, looked up)
# Doublesex- and mab-3-related …: MERSQCGSRDRGVSGRPHLAPGLVVAAPPPPSPALPVPSGMQVPPAFLRPPSLFLRAAAAAAAAAAATSGSGGCPPAPGLESGVGAVGCGYPRTPKCARCRNHGVVSALKGHKRFCRWRDCACAKCTLIAERQRVMAAQVALRRQQAQEESEARGLQRLLCSGLSWPPGGRASGGGGRAENPQSTGGPAAGAALGLGALRQASGSATPAFEVFQQDYPEEKQEQKESKCESCQNGQEELISKSHQLYLGSSSRSNGVIGKQSIGSSISEYSNKPDSILSPHPGEQSGGEESPRSLSSSDLESGNESEWVKDLTATKASLPTVSSRPRDPLDILTKIFPNYRRSRLEGILRFCKGDVVQAIEQVLNGKEHKPDNRNLANSEELENTAFQRASSFSLAGIGFGTLGNKSAFSPLQTTSASYGGDSSLYGVNPRVGISPLRLAYSSAGRGLSGFMSPYLTPGLVPTLPFRPALDYAFSGMIRDSSYLSSKDSITCGRLYFRPNQDNP
# B8: DMP-1 (protein, UniProt Q9Y222 1-760, looked up)
# Cyclin-D-binding Myb-like …: MSTVEEDSDTVTVETVNSVTLTQDTEGNLILHCPQNEADEIDSEDSIEPPHKRLCLSSEDDQSIDDSTPCISVVALPLSENDQSFEVTMTATTEVADDEVTEGTVTQIQILQNEQLDEISPLGNEEVSAVSQAWFTTKEDKDSLTNKGHKWKQGMWSKEEIDILMNNIERYLKARGIKDATEIIFEMSKDERKDFYRTIAWGLNRPLFAVYRRVLRMYDDRNHVGKYTPEEIEKLKELRIKHGNDWATIGAALGRSASSVKDRCRLMKDTCNTGKWTEEEEKRLAEVVHELTSTEPGDIVTQGVSWAAVAERVGTRSEKQCRSKWLNYLNWKQSGGTEWTKEDEINLILRIAELDVADENDINWDLLAEGWSSVRSPQWLRSKWWTIKRQIANHKDVSFPVLIKGLKQLHENQKNNPTLLENKSGSGVPNSNTNSSVQHVQIRVARLEDNTAISSSPMAALQIPVQITHVSSADSPATVDSETITLNSGTLQTFEILPSFHLQPTGTPGTYLLQTSSSQGLPLTLTASPTVTLTAAAPASPEQIIVHALSPEHLLNTSDNVTVQCHTPRVIIQTVATEDITSSISQAELTVDSDIQSSDFPEPPDALEADTFPDEIHHPKMTVEPSFNDAHVSKFSDQNSTELMNSVMVRTEEEISDTDLKQEESPSDLASAYVTEGLESPTIEEQVDQTIDDETILIVPSPHGFIQASDVIDTESVLPLTTLTDPILQHHQEESNIIGSSLGSPVSEDSKDVEDLVNCH
# B9: ACTL6B (protein, UniProt Q99MR0 1-426, looked up)
# Actin-like protein 6B: MSGGVYGGDEVGALVFDIGSFSVRAGYAGEDCPKADFPTTVGLLAAEEGGGLELEGEKEKKGKIFHIDTNALHVPRDGAEVMSPLKNGMIEDWECFRAILDHTYSKHVKSEPNLHPVLMSEAPWNTRAKREKLTELMFEQYNIPAFFLCKTAVLTAFANGRSTGLVLDSGATHTTAIPVHDGYVLQQGIVKSPLAGDFISMQCRELFQEMAIDIIPPYMIAAKEPVREGAPPNWKKKEKLPQVSKSWHNYMCNEVIQDFQASVLQVSDSPYDEQVAAQMPTVHYEMPNGYNTDYGAERLRIPEGLFDPSNVKGLSGNTMLGVGHVVTTSIGMCDIDIRPGLYGSVIVTGGNTLLQGFTDRLNRELSQKTPPSMRLKLIASNSTMERKFSPWIGGSILASLGTFQQMWISKQEYEEGGKQCVERKCP
# B10: DBX2 (protein, UniProt Q6ZNG2 1-339, looked up)
# Homeobox protein DBX2: MLPSAVAAHAGAYWDVVASSALLNLPAAPGFGNLGKSFLIENLLRVGGAPTPRLQPPAPHDPATALATAGAQLRPLPASPVPLKLCPAAEQVSPAGAPYGTRWAFQVLSPSADSARLPGRAPGDRDCTFQPSAPAPSKPFLLSTPPFYSACCGGSCRRPASSTAFPREESMLPLLTQDSNSKARRGILRRAVFSEDQRKALEKMFQKQKYISKTDRKKLAINLGLKESQVKIWFQNRRMKWRNSKEKEVLSNRCIQEVGLQEDPLSRSALGFPSPCPSIWDVPQQHSSPRWRENSPEPSERLIQESSGAPPPEANSLQGALYLCSEEEAGSKGVLTGAV
# B11: DDIT3 (protein, UniProt P35638 1-169, looked up)
# DNA damage-inducible …: MAAESLPFSFGTLSSWELEAWYEDLQEVLSSDENGGTYVSPPGNEEEESKIFTTLDPASLAWLTEEEPEPAEVTSTSQSPHSPDSSQSSLAQEEEEEDQGRTRKRKQSGHSPARAGKQRMKEKEQENERKVAQLAEENERLKQEIERLTREVEATRRALIDRMVNLHQA
# Tested on: HEK293FT cells transfected with TF library
# Test: Screening of TF condensates based on fluorescent puncta
# Format: cell-based
# Settings: Figure 1B numerical data; TF library screen, one value per transcriptional factor
# Procedure: TF plasmids were automatically added to black-walled 384-well plates at 80 ng per well to reach a final concentration of 1.6 μg/ml. Polyethylenimine (PEI, Sigma) was then added to the plasmid-loaded plates at 240 ng per well (4.8 μg/ml). Subsequently, HEK293FT cells were seeded into the plate at 2000 cells per well. After 60 h, cells were cultured in medium with or without glucose for 12 h, and then fixed with 4% paraformaldehyde (PFA) at room temperature for 30 min. After three washes with PBS, fixed cells were permeabilized with 0.05% Triton X-100 for 15 min. Thereafter, cells were blocked with 5% BSA for 1 h, and then incubated overnight with anti-Flag (Sigma F3165, 1:200) and anti-GAL4 (Abbkine ABP57232, 1:200) primary antibodies at 4 °C. The cells were then gently washed with PBS, followed by being incubated with Alexa Fluor Plus 488 goat anti-mouse IgG secondary antibody (Thermo A32723, 1:400) or Alexa Fluor Plus 488 goat anti-rabbit IgG secondary antibody (Thermo A32731, 1:400) for 1 h. The plates were kept at 4 °C in the dark before being analyzed using an Opera System (Perkin Elmer). Fifty random fields per well were scanned and analyzed using the Columbus Plus Image Data Storage and Analysis System (Perkin Elmer).
row,Molecule,Z score of condensed fraction
1,B1,0.7932
2,B2,-0.356
3,B3,1.184
4,B4,0.6597
5,B5,-0.8656
6,B6,0.04096
7,B7,-0.1434
8,B8,2.192
9,B9,0.5544
10,B10,2.182
11,B11,-1.245
